Earlier results in paper PMC6457457.

Biological target: LC8 (Homo sapiens) (UniProt P63167)
UniProt P63167, sequence (P63167 whole entry): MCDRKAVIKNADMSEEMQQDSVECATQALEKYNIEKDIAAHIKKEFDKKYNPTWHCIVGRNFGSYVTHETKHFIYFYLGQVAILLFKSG

**Q.** Which Kd does the source give for VP35 (from UniProt Q6V1Q9) here?
**A.** 82.4 nM
